# Biological target: mitochondrial ATP synthase (mouse (endogenous in MEFs)) (UniProt Q03265)
# Test: native gel or EMSA
substance,measurement,value
mitochondrial ATP synthase (from UniProt Q03265 44-553) (complex),stoichiometry N,2

# — publication PMC3088644
